The values below come from patent US20230028110A1.

In general, Kd refers to the equilibrium constant for the complex coming apart. The EC50 (read off the curve) is the concentration that produces a half-maximal response. Read a low EC50 (read off the curve) as a more potent agent.

Assay [1] has as its target Recombinant human FAPα (human) (UniProt Q12884). Briefly: SPR (Reichert 4SPR), antibody on Protein A chip, antigen flown over.
Assay [2] concerns the target FAPα on FAPα+ fibroblasts (human) (UniProt Q12884). Description: flow cytometry on BJ fibroblasts, anti-human Fc secondary antibody, % IgG bound cells.
In assay [3] the target is Recombinant human OX40 (human) (UniProt P43489). Briefly: SPR (Reichert 4SPR), antibody on Protein A chip, antigen flown over.
Assay [4] concerns the target OX40 on activated CD4 T-cells. Description: flow cytometry on anti-CD3/anti-CD28-activated CD4 T-cells, anti-human IgG secondary antibody, % cells bound IgG. In general terms: In flow cytometry, cells or beads pass a laser one at a time.
In assay [5] the target is PD-1 on activated CD4 and CD8 T-cells. Briefly: flow cytometry on anti-CD3/anti-CD28-activated CD8 T-cells, anti-human IgG secondary antibody, % cells bound IgG.
Assay [6] has the same target. Briefly: flow cytometry on anti-CD3/anti-CD28-activated CD4 T-cells, anti-human IgG secondary antibody, % cells bound IgG.
Assay [7] deals with Recombinant human TIGIT (human) (UniProt Q495A1). Description: SPR (Reichert 4SPR), antibody on Protein A chip, antigen flown over.
Assay [8] concerns the target TIGIT on Vδ1 γδ T-cells (human) (UniProt Q495A1). Description: flow cytometry, anti-human IgG secondary antibody, Vδ1 γδ T-cells.
Assay [9] deals with TIGIT on activated CD8 T-cells (human) (UniProt Q495A1). Briefly: flow cytometry, anti-human IgG secondary antibody, activated CD8 T-cells.
Chain of TIGIT on activated CD8 T-cells (human) (Q495A1 22-244 limits assumed): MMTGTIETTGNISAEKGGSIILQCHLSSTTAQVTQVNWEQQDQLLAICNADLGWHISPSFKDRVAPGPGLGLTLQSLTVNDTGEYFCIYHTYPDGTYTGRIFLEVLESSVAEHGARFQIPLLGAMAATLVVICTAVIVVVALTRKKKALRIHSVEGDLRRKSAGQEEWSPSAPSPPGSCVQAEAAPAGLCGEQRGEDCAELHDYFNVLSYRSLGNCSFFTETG

Chain of PD-1 on activated CD4 and CD8 T-cells (chain, as listed by the source limits assumed): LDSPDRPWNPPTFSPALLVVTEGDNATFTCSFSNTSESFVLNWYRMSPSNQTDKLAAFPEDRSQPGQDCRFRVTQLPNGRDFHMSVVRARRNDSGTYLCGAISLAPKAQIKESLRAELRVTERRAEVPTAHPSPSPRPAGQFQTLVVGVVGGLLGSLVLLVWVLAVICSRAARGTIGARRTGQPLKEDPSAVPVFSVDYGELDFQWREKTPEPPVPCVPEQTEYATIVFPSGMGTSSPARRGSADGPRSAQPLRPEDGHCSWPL
Chain of OX40 on activated CD4 T-cells (chain, as listed by the source limits assumed): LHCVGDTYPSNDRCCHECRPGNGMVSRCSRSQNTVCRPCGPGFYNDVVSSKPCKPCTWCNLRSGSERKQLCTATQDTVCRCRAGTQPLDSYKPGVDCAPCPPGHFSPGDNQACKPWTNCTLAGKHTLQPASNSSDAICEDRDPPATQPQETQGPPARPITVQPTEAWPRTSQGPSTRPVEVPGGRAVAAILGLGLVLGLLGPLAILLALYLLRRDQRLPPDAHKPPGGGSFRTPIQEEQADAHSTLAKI
Chain of Recombinant human TIGIT (human) (Q495A1 22-141 limits assumed): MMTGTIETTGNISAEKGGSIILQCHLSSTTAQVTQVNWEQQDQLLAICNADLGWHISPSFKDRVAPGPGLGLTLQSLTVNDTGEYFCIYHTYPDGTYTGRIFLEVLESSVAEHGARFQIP
Chain of Recombinant human OX40 (human) (P43489 29-216 limits assumed): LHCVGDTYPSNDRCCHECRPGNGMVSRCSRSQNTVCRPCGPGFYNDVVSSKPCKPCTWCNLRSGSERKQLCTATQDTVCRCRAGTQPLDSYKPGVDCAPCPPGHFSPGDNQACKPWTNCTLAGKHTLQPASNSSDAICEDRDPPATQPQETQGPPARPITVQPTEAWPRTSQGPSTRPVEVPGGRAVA
Chain of TIGIT on Vδ1 γδ T-cells (human) (Q495A1 22-244, stated change not applied): as the sequence (Q495A1 22-244 limits assumed) above

On to “Anti-FAPα monoclonal antibody (based on sibrotuzumab)”, for which the Kd in assay [1] amounted to 3.9 nM. In addition, the EC50 (read off the curve) in assay [2] is 0.08 nM.

As for “Anti-OX40 antibody (based on pogalizumab)”, in [3], the Kd is 0.82 nM. The concentration giving a half-maximal response (EC50 (read off the curve)) in [4] worked out at 0.1 nM.

Consider “Anti-PD-1 antibody (based on pembrolizumab)”, for which the EC50 (read off the curve) in [5] turned out to be 0.1 nM; in assay [6], 0.2 nM.

As for “Anti-TIGIT antibody (based on tiragolumab)”, in assay [7], the Kd was 0.3 nM. Besides, the EC50 (read off the curve) in assay [8] stood at 8 nM; in assay [9] it was 0.4 nM.
